# Data from US5648211.
# Test system: BsrI
# Assay: cleavage_in_vitro
# Conditions: PS at A in filled-in regions; SDA cycle turnover with Bst polymerase; 60 C, 6 mM MgCl2, 50 mM KCl, pH 7.6
sequence,measurement,value
CCACCTCTGACTTGAGCGTCCCAGTGTCAATACGGCGGAGCCTATGGAGTAACGCC / GCAAAAGGCCAGGAACCGATAAAAGGATGCGTTGCTGGCGTTACTCCATAGGCTCCG [linear SDA BsrI duplex (filled in to 92 bp)],activity,1 min⁻¹
